Experimental data: patent US12208130B2, “Treatment of women affected with polycystic ovary syndrome” (INSTITUT NATIONAL DE LA SANTE ET DE LA RECHERCHE MEDICALE …, priority 2017, dated 2025)
Where a SMILES comes first, the peptide text is derived from it. [ ]: non-standard residue; d: D form. dPhe(4-Cl) = N[C@H](Cc1ccc(Cl)cc1)C(=O)O; d2Nal = N[C@H](Cc1ccc2ccccc2c1)C(=O)O; dCit = NC(=O)NCCC[C@@H](N)C(=O)O; d3Pal = N[C@H](Cc1cccnc1)C(=O)O

Test system: C57BL6/J (B6) dams and their female offspring
Assay: Prenatal treatment of pregnant dams: phenotype, estrous cycle, ovarian histology and fertility of female offspring
Format: in vivo, mouse
Procedure: FIGS. 2A-2E-3. Prenatal AMH treatment disrupts estrous cyclicity, ovarian morphology and fertility in adult offspring. (FIG. 2A) Schematic of experimental design whereby pregnant dams were subjected to different treatments by intraperitoneal (i.p.) injections during the late gestational period (embryonic days (E) 16.5-E18.5). Pregnant dams were treated with i.p. injections of four different treatments, which are designated as the following: Control, PBS, 0.01M, pH 7.4 (n=14); Prenatal anti-Müillerian hormone-treated (PAMH), PBS containing human recombinant AMH (n=19); Prenatal AMH+Cetrorelix (PAMH+GnRH antag), PBS containing both human recombinant AMH and cetrorelix acetate (n=10); Cetrorelix-treated (GnRH antag), PBS containing cetrorelix acetate (n=4). (FIG. 2B) Quantitative analysis of ovarian cyclicity in adult (P60-P90) offspring mice (control, n=14; PAMH, n=19; PAMH+GnRH antag, n=10; GnRH antag, n=4). Vaginal cytology was assessed for 16 days. […] Bars from left to right in each group: Control, PAMH, PAMH+GnRH antag, GnRH antag. (FIGS. 2C-1, 2C-2, 2C-3) Representation of estrous cyclicity in one female mouse of each of the four treatments during 16 consecutive days (4-cycles). (FIGS. 2D-1, 2D-2, 2D-3) Quantitative analysis of corpora lutea, late antral follicles and atretic follicles in the ovaries of Control (n=7, age: P90) and PAMH mice (n=8, age: P90). Data are represented as mean±s.e.m (two-tailed Student's t-test; corpora lutea, t(13)=4.879, **P<0.001; late antral follicles, t(13)=4.637, **P<0.001; atretic follicles, t(13)=0.226, P=0.82). Data were combined from two independent experiments. In FIGS. 2D-1, 2D-2 and 2D-3: left bar: Control; right bar: PAMH.). (FIGS. 2E-1, 2E-2, 2E-3) Fertility tests of the adult offspring mice (P90). Bars from left to right in each FIGS. 2E-1, 2E-2 and 2E-3: Control, PAMH, PAMH+GnRH antag, GnRH antag Matings were performed for 90 days. Control females were paired with control males (n=7), PAMH females were paired with PAMH males (n=7), PAMH+GnRH antag females were paired with PAMH+GnRH antag males (n=6), and GnRH antag females were paired with GnRH antag males (n=4). […] Data are represented as mean±s.e.m. One-way ANOVA and Tukey's multiple comparison post hoc test: time to first litter, F(3,20)=14.73, ***P<0.0001; fertility index, F(3,20)=7.069, *P<0.05, **P<0.005; number of pups/litter, F(3,20)=30.71, ***P<0.0001.
FIGS. 8A-8D. Prenatal AMH treatment disrupts puberty onset and estrous cyclicity cyclicity but not body mass of the offspring. (FIGS. 8A, 8B, 8C, 8D) Parameters of pubertal onset and estrous cyclicity in female control (n=14), PAMH (n=17-19), PAMH+GnRH antag (n=10), and GnRH antag (n=4) animals. (FIG. 8A) Age of vaginal opening (VO) and (FIG. 8B) Age of first estrus were compared using a one-way ANOVA and Tukey's multiple comparison post hoc analyses, respectively: F (3, 43)=48.37, *** P<0.0001; F (3, 41)=112.6, *** P<0.0001. Bars from left to right in each FIGS. 8A, 8B: Control, PAMH, PAMH+GnRH antag, GnRH antag (FIG. 8C) Percentage (%) of completed estrous cycles over 16 days (4 cycles) was analyzed using a non-parametric Kruskal-Wallis test followed by a Dunn's multiple comparison post-hoc analysis: Kruskal-Wallis statistic=35.55, *P<0.05, **P<0.005, ***P<0.0001. Bars from left to right in each FIG. 8C: Control, PAMH, PAMH+GnRH antag, GnRH antag (FIG. 8D) Body mass (gr) was measured in female offspring at each post-natal age (P) until P60 and compared using a one-way ANOVA and Tukey's multiple comparison post hoc analyses for each age and treatment: P30, F (3, 43)=1.338, P=0.2747; P35, F (3, 43)=0.4268, P=0.7348; P40, F (3, 43)=0.4171, P=0.7416; P50, F (3, 27)=2.158, P=0.1162; P60, F (3, 27)=5.45, P=0.0046; * P<0.05, **, P<0.005. Asterisks represent significant differences (mean±s.e.m): *P<0.05, **P<0.005, ***, P<0.0001. Bars from left to right in FIG. 8D: Control, PAMH, PAMH+GnRH antag, GnRH antag. […]

[1] = dams i.p. AMH 0.12 mg/Kg/d + cetrorelix acetate 0.5 mg/Kg E16.5-E18.5, female offspring
[2] = dams i.p. 0.12 mg/Kg/d E16.5-E18.5, female offspring vs control

Row | Molecule | estrous cyclicity and fertility (GnRH antagonist alone, dams i.p. 0.5 mg/Kg/d E16.5-E18.5, offspring) | longer ano-genital distance phenotype of PAMH offspring [1] | oligo-anovulation and subfertility (ovulatory and fertility defects) of PAMH offspring [1] | oligo-anovulation and subfertility (ovulatory and fertility defects) of PAMH offspring (dams i.p. AMH 0.12 mg/Kg/d + cetrorelix acetate 0.5 mg/Kg E16.5-E18.5, female offspring, listed as GnRH antagonist) | estrous cyclicity (dams i.p. 0.12 mg/Kg/d E16.5-E18.5, adult female offspring vs control) | ano-genital distance (dams i.p. 0.12 mg/Kg/d E16.5-E18.5, female offspring P30-P60 vs control) | body weight of offspring [2] | puberty onset (first estrus) [2] | vaginal opening [2]
1 | CC(=O)N[C@H](Cc1ccc2ccccc2c1)C(=O)N[C@H](Cc1ccc(Cl)cc1)C(=O)N[C@H](Cc1cccnc1)C(=O)N[C@@H](CO)C(=O)N[C@@H](Cc1ccc(O)cc1)C(=O)N[C@H](CCCNC(N)=O)C(=O)N[C@@H](CC(C)C)C(=O)N[C@@H](CCCNC(=N)N)C(=O)N1CCC[C@H]1C(=O)N[C@H](C)C(N)=O [Cetrorelix acetate, Ac-D-2Nal-D-Phe(4-Cl)-D-3Pal-Ser-Tyr-D-Cit-Leu-Arg-Pro-D-Ala-NH2] (Ac-[d2Nal][dPhe(4-Cl)][d3Pal]SY[dCit]LRP[dA]-NH2) | no effect | completely rescued | totally prevented | prevented the appearance of the ovulatory and fertility defects | – | – | – | – | –
2 | proAMH: AMH proprotein (Origene Technologies, Cat # TP308397), injected prenatally 0.12 mg/Kg/d (protein, UniProt P03971 25-560, looked up, pro-form, AMH proprotein (Origene Technologies, Cat # TP308397), injected prenatally 0.12 mg/Kg/d) pro-form: LRAEEPAVGTSGLIFREDLDWPPGSPQEPLCLVALGGDSNGSSSPLRVVGALSAYEQAFLGAVQRARWGPRDLATFGVCNTGDRQAALPSLRRLGAWLRDPGGQRLVVLHLEEVTWEPTPSLRFQEPPPGGAGPPELALLVLYPGPGPEVTVTRAGLPGAQSLCPSRDTRYLVLAVDRPAGAWRGSGLALTLQPRGEDSRLSTARLQALLFGDDHRCFTRMTPALLLLPRSEPAPLPAHGQLDTVPFPPPRPSAELEESPPSADPFLETLTRLVRALRVPPARASAPRLALDPDALAGFPQGLVNLSDPAALERLLDGEEPLLLLLRPTAATTGDPAPLHDPTSAPWATALARRVAAELQAAAAELRSLPGLPPATAPLLARLLALCPGGPGGLGDPLRALLLLKALQGLRVEWRGRDPRGPGRAQRSAGATAADGPCALRELSVDLRAERSVLIPETYQANNCQGVCGWPQSDRNPRYGNHVVLLLKMQVRGAALARPPCCVPTAYAGKLLISLSEERISAHHVPNMVATECGCR | – | – | – | – | disrupted estrous cyclicity | significantly longer ano-genital distance | no difference in body weight | delayed puberty onset | delayed vaginal opening
